From article PMC12582121, “RNA binding of GAPDH controls transcript stability and protein translation in acute myeloid leukemia”

Assays:
GAPDH [1] = biological target: T1, GAPDH (Homo sapiens, UniProt P04406 1-335); assay: fluorescence polarization; 10 mM Tris-HCl pH 8.0, 50 mM KCl, 2 mM DTT, 0.5 mM EDTA, 0.1 mg/ml BSA, 0.1 mg/ml heparin, room temperature; FP 30 min with 2 nM RNA; EMSA 20 min plus 10% glycerol and RiboLock, 6% native gel at 4°C; mass photometry without BSA/heparin; conditions: protein: recombinant, tags: N-terminal His, chain copies: 4, single strand
T1 sequence (P04406 whole entry): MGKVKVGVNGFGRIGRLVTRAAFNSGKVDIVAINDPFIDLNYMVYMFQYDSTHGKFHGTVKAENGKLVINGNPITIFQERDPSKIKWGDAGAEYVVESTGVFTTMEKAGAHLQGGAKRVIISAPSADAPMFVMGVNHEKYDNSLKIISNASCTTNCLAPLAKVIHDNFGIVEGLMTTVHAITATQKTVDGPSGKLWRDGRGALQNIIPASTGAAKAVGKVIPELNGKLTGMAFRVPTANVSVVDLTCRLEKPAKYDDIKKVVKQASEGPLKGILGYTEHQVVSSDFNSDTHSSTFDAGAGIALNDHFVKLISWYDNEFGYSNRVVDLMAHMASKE

GAPDH [2] = biological target: T1, GAPDH; assay: EMSA, possibly a misprint for nM; 10 mM Tris-HCl pH 8.0, 50 mM KCl, 2 mM DTT, 0.5 mM EDTA, 0.1 mg/ml BSA, 0.1 mg/ml heparin, room temperature; FP 30 min with 2 nM RNA; EMSA 20 min plus 10% glycerol and RiboLock, 6% native gel at 4°C; mass photometry without BSA/heparin; conditions: protein: recombinant; tags: N-terminal His; chain copies: 4; label: fluorescein (Roche RNA labeling mix, internal); single strand
GAPDH [3] = biological target: T1, GAPDH; assay: EMSA; 10 mM Tris-HCl pH 8.0, 50 mM KCl, 2 mM DTT, 0.5 mM EDTA, 0.1 mg/ml BSA, 0.1 mg/ml heparin, room temperature; FP 30 min with 2 nM RNA; EMSA 20 min plus 10% glycerol and RiboLock, 6% native gel at 4°C; mass photometry without BSA/heparin; conditions: protein: recombinant, tags: N-terminal His, chain copies: 4, single strand

With UGGCCAAUGCCCUGGCUCACAAAUACCACUG (ssRNA) [Rβ31] as the binder, how does the Kd (GAPDH [1]; S17 legend says FITC-labeled RNA) read?
Its Kd is 1310 nM.

B1: RPL13a 5'UTR (ssRNA)
RNA: GGGCCUCCUUUUCCAAGCGGCUGCCGAAGAUGGCGGAGGUGCAGGUCCUGGUGCUUGAUGGUCGAGGCCAUCUCCUGGGCCGCCUGGCGGCCAUCGUGGCUAAACAG
B1 was tested. Which Kd (GAPDH [2]) did it give?
Its Kd is 887000 nM.

B2: GAPDH 5'UTR (ssRNA)
RNA: GGGCUCUCUGCUCCUCCUGUUCGACAGUCAGCCGCAUCUUCUUUUGCGUCGCCAGCCGAGCCACAUCGCUCAGACACC
Which Kd (GAPDH [3]; label: fluorescein (Roche RNA labeling mix, internal)) does the source give for B2 here?
Its Kd is 400 nM.

With GUGAUUAUUUAUUAUUUAUUUAUUAUUUAUUUAUUUAG (ssRNA) [TNFα-ARE38] as the binder, how does the Kd (GAPDH [3]) read?
The Kd was 217 nM.

What about the Kd (GAPDH [1]) of the same binder?
Its Kd is 167 nM.
